Like-named read-outs stand apart in the source and are kept apart here.
Tests used:
Test in all cases: single-molecule AFM dynamic force spectroscopy
[1] = target: T1, E-cadherin endogenously expressed on the apical surface of MDCK cells (canine (endogenous in MDCK), UniProt F1PAA9 157-885)
T1 sequence (looked up): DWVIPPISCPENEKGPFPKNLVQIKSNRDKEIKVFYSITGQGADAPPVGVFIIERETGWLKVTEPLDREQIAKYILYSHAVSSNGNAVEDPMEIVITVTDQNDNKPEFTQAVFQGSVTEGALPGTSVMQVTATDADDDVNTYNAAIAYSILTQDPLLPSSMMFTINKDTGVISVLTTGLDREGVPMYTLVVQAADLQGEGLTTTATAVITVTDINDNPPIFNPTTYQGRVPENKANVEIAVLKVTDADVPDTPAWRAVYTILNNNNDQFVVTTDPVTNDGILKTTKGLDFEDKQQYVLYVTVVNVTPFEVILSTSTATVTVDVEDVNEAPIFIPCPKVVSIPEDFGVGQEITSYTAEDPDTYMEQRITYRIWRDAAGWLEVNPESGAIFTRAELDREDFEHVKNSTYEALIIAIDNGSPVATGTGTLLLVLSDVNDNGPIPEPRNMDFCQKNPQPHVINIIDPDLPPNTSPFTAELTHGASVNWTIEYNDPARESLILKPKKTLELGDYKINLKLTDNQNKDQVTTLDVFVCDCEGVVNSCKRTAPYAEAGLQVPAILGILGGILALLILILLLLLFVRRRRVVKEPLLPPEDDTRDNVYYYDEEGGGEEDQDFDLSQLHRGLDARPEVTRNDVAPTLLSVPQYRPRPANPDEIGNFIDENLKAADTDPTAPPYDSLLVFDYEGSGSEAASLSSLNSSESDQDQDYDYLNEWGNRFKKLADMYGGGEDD

[2] = target: T1, E-cadherin endogenously expressed on …; remark: listed apart in the source
[3] = target: T1, E-cadherin endogenously expressed on …; remark: listed apart in the source

- koff [1]: 1.77 s⁻¹
- koff [2]: 1.73 s⁻¹
- koff [3]: 2.37 s⁻¹
B1: recombinant E-cadherin extracellular region, biotinylated monomer with C-terminal Avi tag (domain or fragment, UniProt F1PAA9 157-712, looked up)
chain: DWVIPPISCPENEKGPFPKNLVQIKSNRDKEIKVFYSITGQGADAPPVGVFIIERETGWLKVTEPLDREQIAKYILYSHAVSSNGNAVEDPMEIVITVTDQNDNKPEFTQAVFQGSVTEGALPGTSVMQVTATDADDDVNTYNAAIAYSILTQDPLLPSSMMFTINKDTGVISVLTTGLDREGVPMYTLVVQAADLQGEGLTTTATAVITVTDINDNPPIFNPTTYQGRVPENKANVEIAVLKVTDADVPDTPAWRAVYTILNNNNDQFVVTTDPVTNDGILKTTKGLDFEDKQQYVLYVTVVNVTPFEVILSTSTATVTVDVEDVNEAPIFIPCPKVVSIPEDFGVGQEITSYTAEDPDTYMEQRITYRIWRDAAGWLEVNPESGAIFTRAELDREDFEHVKNSTYEALIIAIDNGSPVATGTGTLLLVLSDVNDNGPIPEPRNMDFCQKNPQPHVINIIDPDLPPNTSPFTAELTHGASVNWTIEYNDPARESLILKPKKTLELGDYKINLKLTDNQNKDQVTTLDVFVCDCEGVVNSCKRTAPYAEAGLQVPA
modifications: biotin (biotinylated with BirA enzyme)

Reference: doi:10.1101/2020.05.02.074187 (bioRxiv, 2020)
